Source: patent publication US20230104769A1 (MABWELL SHANGHAI BIOSCIENCE, published 2023)
Blank lines part the entries; values can stand above or below the binder they belong to.

Tests used:
[1] = target: T1, cynomolgus monkey PD-1 (Cat: 90311-C08H, Sino Biological Inc.) (cynomolgus monkey, UniProt B0LAJ3 25-170); assay: ELISA, plate coated with the PD-1 protein at 1 µg/mL, hybridoma supernatant diluted 100 times
T1 construct: Bought recombinant protein; not shown: The vendor's tag
Experimental: (§1) A plate was coated with recombinant human PD-1/His protein (NCBI accession No.: NP_005009.2, 21aa-167aa, Lot: 2016.2.22), cynomolgus monkey PD-1 (Cat: 90311-C08H, Sino Biological Inc.), rat PD-1 (Cat: 80448-R08H, Sino Biological Inc.) and mouse PD-1 (Cat: 50124-M08H, Sino Biological Inc.) in a concentration of 1 μg/mL overnight at 4° C., washed three times with PBS subsequently, and 5% BSA-PBS was added for blocking for 60 min at 37° C. The plate was washed three times with PBST afterwards, and supernatants of the hybridiomas diluted 100 times were added and incubated for 60 min at 37° C. Again, the plate was washed four times with PBST, HRP-Goat anti-mouse IgG (Fcγ) (Cat: 115-035-071, Jackson Immuno Research) with a dilution of 1:5000 was added for a 30 min incubation at 37° C. Once again, the plate was washed four times with PBST, and TMB substrate was added for developing color through incubating for 10 min at 37° C., then the reaction was terminated by adding 2 M HCl. With 630 nm as reference wavelength, the absorbance at 450 nm (A450 nm-630 nm) of each well in the plate was read and recorded.

[2] = target: T2, rat PD-1 (Cat: 80448-R08H, Sino Biological Inc.) (rat, UniProt D3ZIN8 25-169); assay: as above
T2 construct: Bought recombinant protein; also called recombinant rat PD-1; not shown: The vendor's tag
T2 sequence: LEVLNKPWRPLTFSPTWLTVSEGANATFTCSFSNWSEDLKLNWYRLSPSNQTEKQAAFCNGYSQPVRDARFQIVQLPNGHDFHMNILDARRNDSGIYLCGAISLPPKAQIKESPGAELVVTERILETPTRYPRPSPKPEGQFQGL
Experimental: as §1

[3] = target: T3, mouse PD-1 (Cat: 50124-M08H, Sino Biological Inc.) (mouse, UniProt Q02242 25-167); assay: as above
T3 construct: Bought recombinant protein; also called recombinant mouse PD-1
T3 sequence (looked up): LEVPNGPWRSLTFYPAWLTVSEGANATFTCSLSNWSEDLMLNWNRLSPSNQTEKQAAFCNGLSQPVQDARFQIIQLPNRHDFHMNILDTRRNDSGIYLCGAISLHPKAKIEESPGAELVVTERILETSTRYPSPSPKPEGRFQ
Experimental: as §1

[4] = target: T4, recombinant human PD-1/His protein (NCBI accession No.: NP_005009.2, 21aa-167aa, Lot: 2016.2.22) (human, UniProt Q15116 21-167); assay: BLI (Fortebio BLITZ), antibody captured on AHC sensor, PD-1-His in solution
T4 construct: range 21-167; also called recombinant human PD-1 extracellular domain protein; not shown: His tag
Experimental: The light chain variable region gene and heavy chain variable region gene of the monoclonal antibody obtained through cloning, with cleavage sites of restriction enzymes introduced by PCR using the following primers (Table 3), were respectively cloned into the upstream of gene encoding human-kappa light chain constant region and the upstream of gene encoding the human IgG4 heavy chain constant region carried in eukaryotic expression vectors. […] The affinity of the antibody was determined by the anti-human antibody capture assay with Fortebio (BLITZ pro1.1.0.28). For the determination, anti-Human IgG Fc Capture (AHC) biosensors were soaked in PBS for 10 min. […] Subsequently, the AHC biosensors were reacted with the diluted recombinant human PD-1-His protein (NCBI accession No.: NP_005009.2, 21aa-167aa, Lot: 2016.2.22) of different concentrations (1 μM, 0.6 μM and 0 nM) for binding for 45 s, and was then transferred into PBS for dissociating for 120 s.

[5] = target: T5, recombinant human PD-1 protein (NCBI accession No.: NP_005009.2, 21aa-167aa) (human, UniProt Q15116 21-167); assay: BLI Octet QKe, antibody on the sensor, single 100 nM PD-1
T5 construct: range 21-167; also called recombinant human PD-1 extracellular domain protein; PD-1-ECD
Experimental: Determination of the binding kinetics: the affinity of the antibody was determined with Octet QKe system from Fortebio using an assay of capturing biotin-labeled antibody with streptavidin. […] Both the binding and dissociating were conducted for 300 s.
The comparison of affinity between the variant antibodies and the parent antibody was performed using Octet QKe system supplied by Fortebio.

T4 sequence (Q15116 21-167 limits assumed, form in doubt): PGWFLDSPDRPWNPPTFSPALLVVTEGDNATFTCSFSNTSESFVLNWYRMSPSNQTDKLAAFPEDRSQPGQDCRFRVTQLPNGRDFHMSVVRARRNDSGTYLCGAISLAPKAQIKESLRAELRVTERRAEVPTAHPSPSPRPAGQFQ
T1 sequence (B0LAJ3 entry or part of it C08H C08H limits assumed): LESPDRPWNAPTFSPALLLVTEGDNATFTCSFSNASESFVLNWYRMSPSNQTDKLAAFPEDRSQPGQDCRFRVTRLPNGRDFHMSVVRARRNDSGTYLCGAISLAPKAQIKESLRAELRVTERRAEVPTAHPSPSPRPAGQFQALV
T5 sequence (Q15116 21-167 limits assumed, form in doubt): as the sequence (Q15116 21-167 limits assumed, form in doubt) above

- binding result [1]: binds
B1: Clone 317 (murine antibody 317, hybridoma supernatant) (antibody, mouse IgG1, V domains shown)
VH: EVKLVESGGGLMKPGGSLKLSCAASGFTFSSYDMSWVRQTPEKRLEWVATISGGGSYTYYPDSVKGRFTISRDNAKNNLYLQMSSLRSEDTALYYCASPDSSGVAYWGQGTLVTVSA
VL: DIVMTQSHKFMSTSVGDRVSITCKASQDVETVVAWYQQKPGQSPKLLIYWASTRHTGVPDRFTGSGSGTDFTLTISNVQSEDLADYFCQQYSRYPWTFGGGTKL
notes: tested as hybridoma supernatant
- binding result [2]: no binding (tested: single dilution, no concentration shown)
- binding result [3]: no binding (tested: single dilution, no concentration shown)

- Kd [4]: 2.64 nM
- koff [4]: 0.000566 s⁻¹
- kon [4]: 215000 M⁻¹ s⁻¹
B2: chimeric antibody 317 (antibody, V domains shown)
VH: B1 VH
VL: B1 VL

- Kd [5]: 6.81 nM
B3: h317 variant antibody, light chain Y94F (antibody, V domains shown)
VH: EVQLVESGGGLVKPGGSLRLSCAASGFTFSSYDMSWVRQAPGKGLEWVATISGGGSYTYYPDSVKGRFTISRDNAKNSLYLQMNSLRAEDTAVYYCASPDSSGVAYWGQGTLVTVSS
VL: DIVMTQSPLSLPVTPGEPASITCKASQDVETVVAWYLQKPGQSPRLLIYWASTRHTGVPDRFSGSGSGTDFTLKISRVEAEDVGVYYCQQYSRFPWTFGQGTKL
notes: Variant of h317
